Experimental data published in patent US20100273979A1.

How the values were obtained:
[1] = target: human serum albumin (human), P02768; test: SPR (Biacore2000), HSA immobilised (450 RU), analyte 4-400 nM
[2] = target: mouse serum albumin (mouse), P07724; test: SPR (Biacore2000), MSA immobilised on CM-5, analyte injected at 25 nM; qualitative
[3] = target: human serum albumin (human), P02768; test: SPR (Biacore2000), HSA immobilised on CM-5, analyte injected at 25 nM; qualitative

Sequence of mouse serum albumin (mouse), P07724 (P07724 25-608 limits assumed): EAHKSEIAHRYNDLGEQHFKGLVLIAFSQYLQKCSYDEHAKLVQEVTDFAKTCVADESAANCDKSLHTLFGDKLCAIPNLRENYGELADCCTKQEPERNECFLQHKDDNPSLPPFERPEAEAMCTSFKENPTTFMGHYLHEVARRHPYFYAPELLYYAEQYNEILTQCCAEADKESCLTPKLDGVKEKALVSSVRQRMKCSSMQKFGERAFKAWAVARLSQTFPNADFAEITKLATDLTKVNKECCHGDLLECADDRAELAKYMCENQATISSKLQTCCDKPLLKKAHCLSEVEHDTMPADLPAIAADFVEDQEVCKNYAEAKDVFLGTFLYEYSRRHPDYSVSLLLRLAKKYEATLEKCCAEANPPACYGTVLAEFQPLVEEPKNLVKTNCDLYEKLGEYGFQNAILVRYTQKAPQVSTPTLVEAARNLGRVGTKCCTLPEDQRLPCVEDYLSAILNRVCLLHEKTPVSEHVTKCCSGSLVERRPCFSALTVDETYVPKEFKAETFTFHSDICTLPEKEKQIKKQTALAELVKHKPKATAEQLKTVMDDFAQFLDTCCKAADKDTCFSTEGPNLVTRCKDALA

## LAEAKVLANRELDKYGVSDYYKNLINNAKTVEGVKALIDEILAALP (modifications not checked)
[1]
  Kd: 1.2 nM
  koff: 0.00065 s⁻¹
  kon: 550000 M⁻¹ s⁻¹
[2]
  Kd: 4.9 nM
[3]
  Kd: 1.5 nM
